Source: patent US20160311919A1

Columns and labels:
[1] = target: GPNMB (CG56972), native full-length protein on the cell surface or in cell lysates (human) (UniProt Q14956); experiment: FACS, UACC-62 cells, Ab 1 ug/mL
[2] = target: GPNMB (CG56972), native full-length protein on the cell surface or in cell lysates (human) (UniProt Q14956); experiment: flow cytometry on SK-MEL-2 cells, Anti Human IgG PE
[3] = target: GPNMB-V5His (recombinant human GPNMB extracellular domain with C-terminal V5-His tag) (human) (UniProt Q14956); experiment: ELISA, coated GPNMB, Ab 3 ug/mL
[4] = target: GPNMB-V5His (recombinant human GPNMB extracellular domain with C-terminal V5-His tag) (human) (UniProt Q14956); experiment: ELISA, coated GPNMB, Ab 333 ng/mL
[5] = target: GPNMB-V5His (recombinant human GPNMB extracellular domain with C-terminal V5-His tag) (human) (UniProt Q14956); experiment: ELISA, coated GPNMB, Ab 111 ng/mL
[6] = target: GPNMB-V5His (recombinant human GPNMB extracellular domain with C-terminal V5-His tag) (human) (UniProt Q14956); experiment: ELISA, coated GPNMB, Ab 1 ug/mL
[7] = target: GPNMB-V5His (recombinant human GPNMB extracellular domain with C-terminal V5-His tag) (human) (UniProt Q14956); experiment: ELISA, coated GPNMB, Ab 37 ng/mL
[8] = target: GPNMB-V5His (recombinant human GPNMB extracellular domain with C-terminal V5-His tag) (human) (UniProt Q14956); experiment: ELISA, coated GPNMB, Ab 12.3 ng/mL
[9] = target: GPNMB-V5His (recombinant human GPNMB extracellular domain with C-terminal V5-His tag) (human) (UniProt Q14956); experiment: SPR (Biacore), mAb on protein A, GPNMB 880 nM
[10] = target: GPNMB-V5His (recombinant human GPNMB extracellular domain with C-terminal V5-His tag) (human) (UniProt Q14956); experiment: ELISA, coated GPNMB, secondary antibody alone (column head 3 ug/mL)
[11] = target: GPNMB (CG56972), native full-length protein on the cell surface or in cell lysates (human) (UniProt Q14956); experiment: flow cytometry on HEK293 cells transfected with GPNMB plasmid, secondary antibody alone; on empty-vector cells it prints 5.86
[12] = target: GPNMB (CG56972), native full-length protein on the cell surface or in cell lysates (human) (UniProt Q14956); experiment: flow cytometry on HEK293 cells transfected with GPNMB plasmid, 10 µg/mL antibody, PE goat anti-human secondary; the same staining on empty-vector cells prints 7.96

Chain of GPNMB (CG56972), native full-length protein on the cell surface or in cell lysates (human) (Q14956 23-492): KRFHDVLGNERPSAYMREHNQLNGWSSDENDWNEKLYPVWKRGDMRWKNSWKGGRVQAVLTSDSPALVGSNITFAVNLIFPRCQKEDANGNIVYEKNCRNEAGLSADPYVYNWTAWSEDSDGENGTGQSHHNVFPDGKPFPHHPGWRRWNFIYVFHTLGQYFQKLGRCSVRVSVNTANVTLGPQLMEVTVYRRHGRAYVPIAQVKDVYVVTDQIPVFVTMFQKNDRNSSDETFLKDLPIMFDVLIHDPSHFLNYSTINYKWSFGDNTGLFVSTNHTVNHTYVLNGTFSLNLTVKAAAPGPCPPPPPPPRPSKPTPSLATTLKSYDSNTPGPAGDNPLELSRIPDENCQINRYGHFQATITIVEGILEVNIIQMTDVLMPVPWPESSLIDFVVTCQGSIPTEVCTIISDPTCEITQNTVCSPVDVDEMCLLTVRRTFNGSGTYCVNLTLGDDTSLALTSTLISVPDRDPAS

Row | Avg OD [3] [OD] | Avg OD [4] [OD] | Avg OD [5] [OD] | Avg OD [6] [OD] | Substance | also measured
1 | – | – | – | – | CR011.2.6.2 (antibody) | Geo Mean Ratio (relative to pK16) [1]: 1.9
2 | – | – | – | – | Control (antibody) | Geo Mean [2]: 3.03; Mean [2]: 3.54; Median [2]: 2.84
3 | 0.009 | 0.012 | 0.013 | 0.008 | Irrelevant Antibody (Table 6) | –
4 | 0.009 | 0.009 | 0.009 | 0.008 | Isotype control (Table 6) (antibody) | Avg OD [7]: 0.009 OD; Avg OD [8]: 0.011 OD
5 | 1.16 | 0.902 | 0.701 | 1.05 | Mab1.15.1 (CR011), fully human IgG2 (antibody) | Avg OD [7]: 0.381 OD; Kd [9]: 52 nM; Avg OD [8]: 0.168 OD
6 | – | – | – | – | Secondary Ab control (Table 6) (antibody) | Avg OD [10]: 0.011 OD
7 | – | – | – | – | Secondary Ab-PE (antibody) | Geometric Mean [11]: 7.69
8 | – | – | – | – | isotype-matched control IgG2 antibody | Geometric Mean [12]: 8.63
